The values below come from patent publication US20160347840A1 (Janssen / Centocor, published 2016).

Test [1] concerns the target T1, cell-surface CD3E on primary human T cells (human, UniProt P07766 23-207).
T1 construct: whole, on cells; On the cells CD3E stands in the CD3/T cell receptor complex; also called human CD3
The test can be described thus: flow cytometry on primary human T cells, anti-human IgG Alexa Fluor 647 secondary. The procedure:
The resulting panel of anti-CD3 antibodies was tested for binding against cell-surface CD3E on primary human T cells. To do this, binding of antibodies from expression supernatants was visualized using a polyclonal anti-human secondary antibody and analyzed by flow cytometry. Briefly, binding of anti-CD3 antibodies to cell-surface CD3E was assessed by flow cytometry using primary Human T lymphocytes purified by negative selection (Biological Specialty, Colmar, USA). Expression supernatants or purified antibodies were normalized to 10 μg/ml in media or FACS buffer (BD BioSciences), respectively. 2×10⁵ cells were aliquoted into wells of a 96 well round-bottomed plate (CoStar) for labeling. Antibodies in expression supernatant were added to cells and incubated for 45 min at 4° C. Following centrifugation at 1300 rpm for 3 min and removal of supernatant, 50 μL of anti-human IgG (H+L) Alexa Fluor 647 secondary antibody (Life technologies Inc.) was incubated with the cells at a final concentration of 10 μg/mL for 30 min at 4° C. away from direct light. Following washing and resuspension in 30 μL FACs buffer (BD BioSciences). Sample collection was performed on an Intellicyt HTFC system using ForeCyt software. Viable single cells were gated prior to analysis of binding using the green or red fixable live/dead dyes (Life Technologies Inc.) and forward/side scatter area and height parameters, respectively. Graphs were generated in GraphPad Prism version 5 using mean fluorescence intensity values.
Two in-house phage-derived antibodies with the same Fc region as the therapeutic antibodies were used as controls: G11 (HC SEQ ID NO:176, LC SEQ ID NO:177), a non-cyno cross-reactive, agonistic antibody was used as a positive control and CD3B94 (HC-SEQ ID NO:178, LC—SEQ ID NO:179) a non-binder/non-agonistic antibody was used to assess non-specific binding. The commercial SP34 antibody was not used as a comparator in this assay since it is a mouse antibody and the use of a different secondary detection reagent would have prohibited direct comparison with the variants tested.

Test [2] has as its target T2, human PSMA on tumor cells (LNCaP, MDA-PCA-2B, VCAP, 22Rv1) (human, UniProt Q04609 1-750). As to the kind of experiment: cell-based or functional assay.
Test [3] addresses T3, chimpanzee PSMA extracellular domain (PSMW8), 6His and Avi tag (chimpanzee, UniProt Q04609 44-750 (human entry), biotinylated in bead-based selections and the ELISA screen).
T3 construct: Cloned along with a 6His and Avi tag; Buffer with ZnCl2 to stabilise PSMA dimerisation; also called pan 229
T3 chain: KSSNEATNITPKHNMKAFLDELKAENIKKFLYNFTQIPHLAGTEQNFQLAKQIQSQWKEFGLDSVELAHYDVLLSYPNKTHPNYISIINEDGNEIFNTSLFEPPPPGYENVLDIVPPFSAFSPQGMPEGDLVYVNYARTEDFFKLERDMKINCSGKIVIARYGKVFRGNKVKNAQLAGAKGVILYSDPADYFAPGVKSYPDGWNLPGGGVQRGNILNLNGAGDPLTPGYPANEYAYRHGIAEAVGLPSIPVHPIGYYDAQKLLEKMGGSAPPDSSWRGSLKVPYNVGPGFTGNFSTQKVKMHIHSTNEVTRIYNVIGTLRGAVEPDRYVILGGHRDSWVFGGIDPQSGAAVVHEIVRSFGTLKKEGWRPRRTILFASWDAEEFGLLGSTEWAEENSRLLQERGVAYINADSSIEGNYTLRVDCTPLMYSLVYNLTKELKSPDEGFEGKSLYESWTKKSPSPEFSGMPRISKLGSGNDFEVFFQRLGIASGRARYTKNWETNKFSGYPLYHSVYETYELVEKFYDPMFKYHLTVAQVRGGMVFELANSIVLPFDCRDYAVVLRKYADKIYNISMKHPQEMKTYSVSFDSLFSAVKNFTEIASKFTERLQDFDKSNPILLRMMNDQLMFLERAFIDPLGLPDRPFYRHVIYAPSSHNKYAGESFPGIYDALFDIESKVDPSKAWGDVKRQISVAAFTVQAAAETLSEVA
The test can be described thus: hit from CIS-display panning and ELISA screen on PSMA of this species (column Antigen species). (ELISA stands for enzyme-linked immunosorbent assay.)

Test [4] concerns the target T2, human PSMA on tumor cells (LNCaP, …). As to the kind of experiment: cell-based or functional assay. The source holds these as a separate data set.
For test [5], the target named is T4, cynomolgus PSMA extracellular domain (PSMW1), 6His and Avi tag (cynomolgus, UniProt Q04609 44-750 (human entry), biotinylated in bead-based selections and the ELISA screen).
T4 construct: Cloned along with a 6His and Avi tag; also called cynomolgus monkey PSMA; pan 230
T4 chain: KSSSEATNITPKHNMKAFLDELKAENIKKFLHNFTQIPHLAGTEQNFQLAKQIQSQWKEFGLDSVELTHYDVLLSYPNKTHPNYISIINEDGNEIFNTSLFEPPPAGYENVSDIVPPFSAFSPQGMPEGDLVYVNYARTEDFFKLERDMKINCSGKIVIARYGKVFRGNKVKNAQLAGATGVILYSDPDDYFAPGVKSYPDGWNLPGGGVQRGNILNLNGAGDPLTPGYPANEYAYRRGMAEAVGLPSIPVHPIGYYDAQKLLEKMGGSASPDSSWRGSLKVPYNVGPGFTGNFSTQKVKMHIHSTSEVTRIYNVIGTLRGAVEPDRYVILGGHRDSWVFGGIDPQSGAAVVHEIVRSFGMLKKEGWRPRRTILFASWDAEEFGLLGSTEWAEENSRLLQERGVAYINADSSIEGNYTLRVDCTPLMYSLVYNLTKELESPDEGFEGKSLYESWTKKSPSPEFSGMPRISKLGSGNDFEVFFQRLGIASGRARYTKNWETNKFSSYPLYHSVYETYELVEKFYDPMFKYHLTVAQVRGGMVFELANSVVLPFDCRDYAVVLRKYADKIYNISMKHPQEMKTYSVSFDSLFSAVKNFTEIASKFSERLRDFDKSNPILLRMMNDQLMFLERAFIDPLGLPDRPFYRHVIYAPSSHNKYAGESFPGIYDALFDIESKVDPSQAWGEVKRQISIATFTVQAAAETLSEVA
As to the kind of experiment: hit from CIS-display panning and ELISA screen on PSMA of this species (column Antigen species).

T2 sequence (Q04609 whole entry, the tested form may be a part): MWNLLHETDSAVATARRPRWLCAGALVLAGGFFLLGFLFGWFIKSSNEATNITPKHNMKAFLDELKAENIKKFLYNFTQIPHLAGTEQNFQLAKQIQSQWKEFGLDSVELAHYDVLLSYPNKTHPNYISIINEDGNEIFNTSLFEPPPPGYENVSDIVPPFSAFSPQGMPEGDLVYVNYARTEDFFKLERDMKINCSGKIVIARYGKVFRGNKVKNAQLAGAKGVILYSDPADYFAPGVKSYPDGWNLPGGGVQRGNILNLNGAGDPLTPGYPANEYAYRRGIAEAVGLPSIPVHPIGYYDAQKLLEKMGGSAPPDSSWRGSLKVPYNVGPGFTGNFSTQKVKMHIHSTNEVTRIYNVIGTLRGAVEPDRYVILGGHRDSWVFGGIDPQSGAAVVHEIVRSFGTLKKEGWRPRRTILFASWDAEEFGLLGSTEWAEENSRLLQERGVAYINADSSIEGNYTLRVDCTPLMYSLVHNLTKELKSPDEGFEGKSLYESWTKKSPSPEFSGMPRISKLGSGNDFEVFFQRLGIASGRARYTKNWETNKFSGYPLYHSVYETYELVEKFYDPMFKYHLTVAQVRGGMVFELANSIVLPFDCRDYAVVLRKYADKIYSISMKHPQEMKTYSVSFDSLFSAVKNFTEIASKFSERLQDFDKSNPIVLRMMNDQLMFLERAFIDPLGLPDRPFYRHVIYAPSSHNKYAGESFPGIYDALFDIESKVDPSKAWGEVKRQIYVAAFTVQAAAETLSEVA
T1 sequence (P07766 23-207): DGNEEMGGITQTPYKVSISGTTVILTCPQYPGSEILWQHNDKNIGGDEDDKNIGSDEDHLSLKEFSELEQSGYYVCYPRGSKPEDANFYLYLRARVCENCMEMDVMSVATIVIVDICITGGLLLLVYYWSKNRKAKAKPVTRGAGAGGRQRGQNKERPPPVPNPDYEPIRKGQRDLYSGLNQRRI

B1: CD3B144 (antibody, human IgG1, V domains shown)
VH: EVQLVESGGGLVQPGGSLRLSCAASGFTFNTYAMNWVRQAPGKGLEWVARIRSKYNNYATYYAASVKGRFTISRDDSKNSLYLQMNSLKTEDTAVYYCARHGNFGNSYVSWFAYWGQGTLVTVSS
VL: QSVLTQPPSVSAAPGQKVTISCRSSTGAVTTSNYANWVQQLPGTAPKGLIGGTNKRAPGIPDRFSGSKSGTSATLGITGLQTGDEADYYCALWYSNLWVFGGGTKLTVL
notes: Humanized SP34 variant; human IgG1 constant region with L234A, L235A, F405L; human lambda constant region; also called CDB144
In the case of B1, in test [1], the binding result is reported as “no binding”.

B2: CD3B152 (antibody, human IgG1, V domains shown)
VH: EVQLLESGGGLVQPGGSLRLSCAASGFTFNTYAMNWVRQAPGKGLEWVARIRSKYNNYATYYADSVKGRFTISRDNSKNTLYLQMNSLRAEDTAVYYCVKHGNFGNSYVSWFAYWGQGTLVTVSS
VL: QSVLTQPPSVSAAPGQKVTISCRSSTGAVTTSNYANWVQQLPGTAPKGLIGGTNKRAPGIPDRFSGSKSGTSATLGITGLQTGDEADYYCALWYSNLWVFGGGTKLTVL
notes: Humanized SP34 variant; human IgG1 constant region with L234A, L235A, F405L; human lambda constant region; also called CDB152
With B2, in test [1], the binding result is listed as “no binding”.

B3: P233FR9P1001_B5-5 (designed binder)
chain: LPAPKNLVVSRVTEDSARLSWTAPDAAFDSFTIGYWEWDDDGEAIVLTVPGSERSYDLTGLKPGTEYPVYIAGVKGGQWSFPLSAIFTT
notes: not shown: C-terminal poly-histidine tag
For the molecule B3, the “LNCaP IC50 (nM), cytotoxicity of the FN3 domain-vcMMAF conjugate (CellTiter-Glo)” value (“LNCaP IC50 (nM), cytotoxicity” below) in test [2] turned out to be 0.5 nM. Moreover, the binding result in test [3] is reported as “binds”.

B4: P233FR9P1001_H3-1 (designed binder)
chain: LPAPKNLVVSRVTEDSARLSWTAPDAAFDSFPIGYWEWDDDGEAIVLTVPGSERSYDLTGLKPGTEYHVYIAGVKGGQWSFPLSAIFTT
notes: as for B3
As to B4, in test [2], the “LNCaP IC50 (nM), cytotoxicity” value amounted to 0.4 nM. Besides, in test [4], the “LNCaP cells IC50 (nM), cytotoxicity of FN3 domain-drug conjugate” value (shortened to “LNCaP cells IC50 (nM), cytotoxicity”) amounted to 0.4 nM; the “MDA-PCA-2B cells IC50 (nM), cytotoxicity of FN3 domain-drug conjugate” value (shortened to “MDA-PCA-2B cells IC50 (nM), cytotoxicity”) came to 4.6 nM; the “VCAP cells IC50 (nM), cytotoxicity of FN3 domain-drug conjugate” value (“VCAP cells IC50 (nM), cytotoxicity” below) turned out to be 15.2 nM. For the same molecule, in test [3], the binding result is listed as “binds”.

B5: P233FR9P1001_D9 (designed binder)
chain: LPAPKNLVVSRVTEDSARLSWTAPDAAFDSFPIGYWEWDDDGEAIVLTVPGSERSYDLTGLKPGTEYWVYIAGVKGGQWSFPLSAIFTT
notes: as for B3
For B5, in test [2], the “LNCaP IC50 (nM), cytotoxicity” value worked out at 1.4 nM. The binding result in test [3] is “binds”.

B6: P234CR9_H01 (designed binder)
chain: LPAPKNLVVSRVTEDSARLSWEWWVIPGDFDSFLIQYQESEKVGEAIVLTVPGSERSYDLTGLKPGTEYTVSIYGVVNSGQWNDTSNPLSAIFTT
notes: as for B3
On to B6, for which the “LNCaP IC50 (nM), cytotoxicity” value in test [2] is 22.6 nM. For the same molecule, in test [4], the “LNCaP cells IC50 (nM), cytotoxicity” value is 22.6 nM; the “MDA-PCA-2B cells IC50 (nM), cytotoxicity” value stood at 151 nM; the “VCAP cells IC50 (nM), cytotoxicity” value stood at 401 nM. In addition, the binding result in test [5] is on record as “binds”.

B7: P258AR6P1070_A05 (designed binder)
chain: LPAPKNLVVSRVTEDSARLSWTIDEQRDWFDSFLIQYQESEKVGEAIVLTVPGSERSYDLTGLKPGTEYTVSIYGVYHVYRSNPLSAIFTT
notes: as for B3
Consider B7, for which the “LNCaP IC50 (nM), cytotoxicity” value in test [2] is 4.6 nM. The binding result in test [5] is on record as “binds”.

B8: P258AR6P1071_F04 (designed binder)
chain: LPAPKNLVVSRVTEDSARLSWVIDEQRDWFDSFLIQYQESEKVGEAIVLTVPGSERSYDLTGLKPGTEYTVSIYGVYHVYRSNPLSAIFTT
notes: as for B3
Take B8: in test [2], the “LNCaP IC50 (nM), cytotoxicity” value is 5.4 nM. In test [5], the binding result was “binds”.

B9: P258AR6P1070_F09 (designed binder)
chain: LPAPKNLVVSRVTEDSARLSWTIDEQRDWFESFLIQYQESEKVGEAIVLTVPGSERSYDLTGLKPGTEYTVSIYGVYHVYRSNPLSAIFTT
notes: as for B3
B9: the “LNCaP IC50 (nM), cytotoxicity” value in test [2] came out at 0.9 nM. Also, the binding result in test [5] is “binds”.

B10: P258AR6P1071_D02 (designed binder)
chain: LPAPKNLVVSRVTEDSARLSWAIDEQRDWFESFLIQYQESEKVGEAIVLTVPGSERSYDLTGLKPGTEYTVSIYGVYHVYRSNPLSAIFTT
notes: as for B3
For the molecule B10, the “LNCaP IC50 (nM), cytotoxicity” value in test [2] turned out to be 0.8 nM. In test [5], the binding result is given as “binds”.

B11: P258AR6P1071_G03 (designed binder)
chain: LPAPKNLVVSRVTEDSARLSWDIDEQRDWFDSFLIQYQESEKVGEAIVLTVPGSERSYDLTGLKPGTEYTVSIYGVYHVYRSNPLSAIFTT
notes: as for B3
Turning to B11, the “LNCaP IC50 (nM), cytotoxicity” value in test [2] turned out to be 5.8 nM. Further, the binding result in test [5] is given as “binds”.

B12: P229CR5P819_H11 (designed binder)
chain: LPAPKNLVVSRVTEDSARLSWDIDEQRDWFDSFLIQYQESEKVGEAIVLTVPGSERSYDLTGLKPGTEYTVSIYGVYHVYRSSNPLSAIFTT
notes: In the cytotoxicity assays it was conjugated to vc-MMAF (cysteine-maleimide chemistry or sortase reaction); also called P229CR9P819-H11; not shown: C-terminal poly-histidine tag
Take B12: the “LNCaP IC50 (nM), cytotoxicity” value in test [2] came out at 20.7 nM. In test [4], the “LNCaP cells IC50 (nM), cytotoxicity” value was determined as 9.3 nM; the “MDA-PCA-2B cells IC50 (nM), cytotoxicity” value came out at 107 nM; the “VCAP cells IC50 (nM), cytotoxicity” value came to 231 nM. Besides, the binding result in test [3] was “binds”.

B13: P234CR9_A7 (designed binder)
chain: LPAPKNLVVSRVTEDSARLSWGEQFTIFDSFLIQYQESEKVGEAIVLTVPGSERSYDLTGLKPGTEYTVSIYGASGYEWFHAFGSSNPLSAIFTT
notes: also called P234CR9_A07; not shown: C-terminal poly-histidine tag
With B13, in test [2], the “LNCaP IC50 (nM), cytotoxicity” value was found to be 8.8 nM. For the same molecule, the binding result in test [5] is “binds”.
